In IntAct's records for PubMed 29892012:

B1: Centrosomal protein POC5 (Homo sapiens), Q8NA72 (parent)
chain: MSSDEEKYSLPVVQNDSSRGSSVSSNLQEEYEELLHYAIVTPNIEPCASQSSHPKGELVPDVRISTIHDILHSQGNNSEVRETAIEVGKGCDFHISSHSKTDESSPVLSPRKPSHPVMDFFSSHLLADSSSPATNSSHTDAHEILVSDFLVSDENLQKMENVLDLWSSGLKTNIISELSKWRLNFIDWHRMEMRKEKEKHAAHLKQLCNQINELKELQKTFEISIGRKDEVISSLSHAIGKQKEKIELMRTFFHWRIGHVRARQDVYEGKLADQYYQRTLLKKVWKVWRSVVQKQWKDVVERACQARAEEVCIQISNDYEAKVAMLSGALENAKAEIQRMQHEKEHFEDSMKKAFMRGVCALNLEAMTIFQNRNDAGIDSTNNKKEEYGPGVQGKEHSAHLDPSAPPMPLPVTSPLLPSPPAAVGGASATAVPSAASMTSTRAASASSVHVPVSALGAGSAATAASEEMYVPRVVTSAQQKAGRTITARITGRCDFASKNRISSSLAIMGVSPPMSSVVVEKHHPVTVQTIPQATAAKYPRTIHPESSTSASRSLGTRSAHTQSLTSVHSIKVVD
partner: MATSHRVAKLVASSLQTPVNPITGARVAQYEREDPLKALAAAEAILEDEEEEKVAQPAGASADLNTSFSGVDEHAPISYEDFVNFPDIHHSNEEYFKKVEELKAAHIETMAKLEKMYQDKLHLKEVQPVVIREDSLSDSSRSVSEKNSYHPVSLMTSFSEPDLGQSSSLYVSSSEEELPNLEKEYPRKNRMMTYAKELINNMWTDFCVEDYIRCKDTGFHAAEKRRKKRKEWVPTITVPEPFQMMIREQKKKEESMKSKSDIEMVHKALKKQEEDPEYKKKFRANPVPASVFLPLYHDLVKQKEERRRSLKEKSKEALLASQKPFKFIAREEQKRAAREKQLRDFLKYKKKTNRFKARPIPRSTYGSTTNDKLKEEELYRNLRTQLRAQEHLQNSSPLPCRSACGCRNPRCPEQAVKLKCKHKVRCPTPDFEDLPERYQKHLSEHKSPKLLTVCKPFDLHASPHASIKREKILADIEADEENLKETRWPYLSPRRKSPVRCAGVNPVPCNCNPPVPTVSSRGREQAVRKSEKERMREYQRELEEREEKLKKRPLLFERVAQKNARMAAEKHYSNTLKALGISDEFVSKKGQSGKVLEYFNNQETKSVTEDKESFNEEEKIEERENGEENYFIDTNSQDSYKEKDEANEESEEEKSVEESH
B2: SOSS complex subunit C (Homo sapiens), Q9NRY2 (parent)
chain: MAANSSGQGFQNKNRVAILAELDKEKRKLLMQNQSSTNHPGASIALSRPSLNKDFRDHAEQQHIAAQQKAALQHAHAHSSGYFITQDSAFGNLILPVLPRLDPE
B3: TBC1 domain family member 22B (Homo sapiens), Q9NU19 (parent)
chain: MAAENSKQFWKRSAKLPGSIQPVYGAQHPPLDPRLTKNFIKERSKVNTVPLKNKKASSFHEFARNTSDAWDIGDDEEEDFSSPSFQTLNSKVALATAAQVLENHSKLRVKPERSQSTTSDVPANYKVIKSSSDAQLSRNSSDTCLRNPLHKQQSLPLRPIIPLVARISDQNASGAPPMTVREKTRLEKFRQLLSSQNTDLDELRKCSWPGVPREVRPITWRLLSGYLPANTERRKLTLQRKREEYFGFIEQYYDSRNEEHHQDTYRQIHIDIPRTNPLIPLFQQPLVQEIFERILFIWAIRHPASGYVQGINDLVTPFFVVFLSEYVEEDVENFDVTNLSQDMLRSIEADSFWCMSKLLDGIQDNYTFAQPGIQKKVKALEELVSRIDEQVHNHFRRYEVEYLQFAFRWMNNLLMRELPLRCTIRLWDTYQSEPEGFSHFHLYVCAAFLIKWRKEILDEEDFQGLLMLLQNLPTIHWGNEEIGLLLAEAYRLKYMFADAPNHYRR
partner: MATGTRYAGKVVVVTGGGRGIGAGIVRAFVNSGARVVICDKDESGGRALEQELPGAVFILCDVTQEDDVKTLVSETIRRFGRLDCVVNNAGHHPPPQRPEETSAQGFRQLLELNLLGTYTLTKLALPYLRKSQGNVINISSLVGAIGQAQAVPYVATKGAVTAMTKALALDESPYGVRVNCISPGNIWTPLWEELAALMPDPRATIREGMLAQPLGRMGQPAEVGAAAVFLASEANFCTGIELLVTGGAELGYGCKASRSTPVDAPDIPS
B4: Coiled-coil alpha-helical rod protein 1 (Homo sapiens), Q8TD31 (parent)
chain: MFPPSGSTGLIPPSHFQARPLSTLPRMAPTWLSDIPLVQPPGHQDVSERRLDTQRPQVTMWERDVSSDRQEPGRRGRSWGLEGSQALSQQAEVIVRQLQELRRLEEEVRLLRETSLQQKMRLEAQAMELEALARAEKAGRAEAEGLRAALAGAEVVRKNLEEGSQRELEEVQRLHQEQLSSLTQAHEEALSSLTSKAEGLEKSLSSLETRRAGEAKELAEAQREAELLRKQLSKTQEDLEAQVTLVENLRKYVGEQVPSEVHSQTWELERQKLLETMQHLQEDRDSLHATAELLQVRVQSLTHILALQEEELTRKVQPSDSLEPEFTRKCQSLLNRWREKVFALMVQLKAQELEHSDSVKQLKGQVASLQEKVTSQSQEQAILQRSLQDKAAEVEVERMGAKGLQLELSRAQEARRRWQQQTASAEEQLRLVVNAVSSSQIWLETTMAKVEGAAAQLPSLNNRLSYAVRKVHTIRGLIARKLALAQLRQESCPLPPPVTDVSLELQQLREERNRLDAELQLSARLIQQEVGRAREQGEAERQQLSKVAQQLEQELQQTQESLASLGLQLEVARQGQQESTEEAASLRQELTQQQELYGQALQEKVAEVETRLREQLSDTERRLNEARREHAKAVVSLRQIQRRAAQEKERSQELRRLQEEARKEEGQRLARRLQELERDKNLMLATLQQEGLLSRYKQQRLLTVLPSLLDKKKSVVSSPRPPECSASAPVAAAVPTRESIKGSLSVLLDDLQDLSEAISKEEAVCQGDNLDRCSSSNPQMSS
partner: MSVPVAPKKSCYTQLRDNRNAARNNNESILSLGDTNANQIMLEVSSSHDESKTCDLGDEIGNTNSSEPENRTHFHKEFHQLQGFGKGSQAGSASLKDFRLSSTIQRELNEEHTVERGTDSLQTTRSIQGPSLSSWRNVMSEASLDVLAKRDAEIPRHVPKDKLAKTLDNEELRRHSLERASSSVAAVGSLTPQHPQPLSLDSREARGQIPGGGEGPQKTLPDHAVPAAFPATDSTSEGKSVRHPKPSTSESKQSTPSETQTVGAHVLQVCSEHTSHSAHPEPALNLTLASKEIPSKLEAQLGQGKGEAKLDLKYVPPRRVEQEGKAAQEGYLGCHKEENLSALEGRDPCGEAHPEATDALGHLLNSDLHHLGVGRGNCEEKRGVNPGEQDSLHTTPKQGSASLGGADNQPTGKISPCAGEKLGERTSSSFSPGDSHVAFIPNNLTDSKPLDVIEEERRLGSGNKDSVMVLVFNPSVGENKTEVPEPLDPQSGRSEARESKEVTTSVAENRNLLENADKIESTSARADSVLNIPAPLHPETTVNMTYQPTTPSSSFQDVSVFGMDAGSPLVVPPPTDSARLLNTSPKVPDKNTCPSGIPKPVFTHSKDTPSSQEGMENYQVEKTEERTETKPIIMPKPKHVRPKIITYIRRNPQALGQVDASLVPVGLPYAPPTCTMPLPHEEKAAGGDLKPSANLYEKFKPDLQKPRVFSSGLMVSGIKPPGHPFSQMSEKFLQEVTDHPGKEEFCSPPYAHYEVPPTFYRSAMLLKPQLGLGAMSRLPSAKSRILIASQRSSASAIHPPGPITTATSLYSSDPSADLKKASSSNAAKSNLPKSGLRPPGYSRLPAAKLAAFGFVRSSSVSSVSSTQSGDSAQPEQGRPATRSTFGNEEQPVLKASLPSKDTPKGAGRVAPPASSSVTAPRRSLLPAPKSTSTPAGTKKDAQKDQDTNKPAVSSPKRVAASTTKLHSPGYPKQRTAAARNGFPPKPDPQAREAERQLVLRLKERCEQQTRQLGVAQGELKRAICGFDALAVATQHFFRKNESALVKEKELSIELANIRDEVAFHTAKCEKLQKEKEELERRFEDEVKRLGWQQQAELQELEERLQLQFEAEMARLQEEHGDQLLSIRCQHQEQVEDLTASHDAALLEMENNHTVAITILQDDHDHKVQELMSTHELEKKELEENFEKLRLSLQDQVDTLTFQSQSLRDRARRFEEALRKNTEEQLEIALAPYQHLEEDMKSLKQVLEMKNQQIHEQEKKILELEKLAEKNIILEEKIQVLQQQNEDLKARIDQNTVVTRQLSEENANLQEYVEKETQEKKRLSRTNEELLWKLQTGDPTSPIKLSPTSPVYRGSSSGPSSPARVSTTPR
B5: E3 ubiquitin-protein ligase LNX (Homo sapiens), Q8TBB1 (parent)
chain: MNQPESANDPEPLCAVCGQAHSLEENHFYSYPEEVDDDLICHICLQALLDPLDTPCGHTYCTLCLTNFLVEKDFCPMDRKPLVLQHCKKSSILVNKLLNKLLVTCPFREHCTQVLQRCDLEHHFQTSCKGASHYGLTKDRKRRSQDGCPDGCASLTATAPSPEVSAAATISLMTDEPGLDNPAYVSSAEDGQPAISPVDSGRSNRTRARPFERSTIRSRSFKKINRALSVLRRTKSGSAVANHADQGRENSENTTAPEVFPRLYHLIPDGEITSIKINRVDPSESLSIRLVGGSETPLVHIIIQHIYRDGVIARDGRLLPGDIILKVNGMDISNVPHNYAVRLLRQPCQVLWLTVMREQKFRSRNNGQAPDAYRPRDDSFHVILNKSSPEEQLGIKLVRKVDEPGVFIFNVLDGGVAYRHGQLEENDRVLAINGHDLRYGSPESAAHLIQASERRVHLVVSRQVRQRSPDIFQEAGWNSNGSWSPGPGERSNTPKPLHPTITCHEKVVNIQKDPGESLGMTVAGGASHREWDLPIYVISVEPGGVISRDGRIKTGDILLNVDGVELTEVSRSEAVALLKRTSSSIVLKALEVKEYEPQEDCSSPAALDSNHNMAPPSDWSPSWVMWLELPRCLYNCKDIVLRRNTAGSLGFCIVGGYEEYNGNKPFFIKSIVEGTPAYNDGRIRCGDILLAVNGRSTSGMIHACLARLLKELKGRITLTIVSWPGTFL
partner: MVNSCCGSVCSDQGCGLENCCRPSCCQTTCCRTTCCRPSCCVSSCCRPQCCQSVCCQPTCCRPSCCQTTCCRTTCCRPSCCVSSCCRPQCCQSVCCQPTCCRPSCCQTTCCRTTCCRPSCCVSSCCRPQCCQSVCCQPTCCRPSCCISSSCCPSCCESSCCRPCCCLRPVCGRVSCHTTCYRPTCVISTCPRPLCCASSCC

Variants of: B1
Conditions: with FAM161A

Variant | effect of a mutation on the interaction
M469T | with no effect

Variants of: B2
Conditions: with rbpms_human RBPMS

Variant | effect of a mutation on the interaction
K28T | with no effect

Variants of: B3
Conditions: with dhb14_human HSD17B14, Q9BPX1

Variant | effect of a mutation on the interaction
A349T | disrupting interaction strength

Variants of: B4
Conditions: with mtus2_human MTUS2, Q5JR59

Variant | effect of a mutation on the interaction
W337R | disrupting interaction strength

Variants of: B5
Conditions: with kr412_human KRTAP4-12, Q9BQ66

Variant | effect of a mutation on the interaction
E295K | disrupting interaction strength
